Reference: article PMC9288512 (2022)
Values belong to the binder of their own block, whether it stands above or below them.

How the values were obtained:
[1] = biological target: T1, recombinant human proprotein convertase subtilisin/kexin 9 (hPCSK9), his-tagged (human, UniProt Q8NBP7 153-692); assay: SPR
[2] = biological target: T1, recombinant human proprotein convertase …; assay: SPR; remark: listed apart in the source

T1 sequence (Q8NBP7 153-692): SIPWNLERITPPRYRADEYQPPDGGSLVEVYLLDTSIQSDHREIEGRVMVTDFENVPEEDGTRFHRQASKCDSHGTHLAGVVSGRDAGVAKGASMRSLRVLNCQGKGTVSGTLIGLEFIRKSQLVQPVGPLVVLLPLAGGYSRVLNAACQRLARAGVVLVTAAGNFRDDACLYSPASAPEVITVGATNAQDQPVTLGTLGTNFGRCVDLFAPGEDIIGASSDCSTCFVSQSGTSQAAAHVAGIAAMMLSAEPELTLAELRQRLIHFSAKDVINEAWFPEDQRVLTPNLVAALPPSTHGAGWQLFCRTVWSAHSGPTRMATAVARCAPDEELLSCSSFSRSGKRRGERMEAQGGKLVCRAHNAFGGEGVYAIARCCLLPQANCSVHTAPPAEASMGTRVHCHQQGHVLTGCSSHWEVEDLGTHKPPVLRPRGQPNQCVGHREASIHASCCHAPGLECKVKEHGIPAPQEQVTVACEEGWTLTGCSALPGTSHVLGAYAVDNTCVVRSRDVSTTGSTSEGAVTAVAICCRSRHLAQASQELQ

koff [1]: 0.000174 s⁻¹
Kd [2]: ~5.01 nM
B1: VHH-B11 (monovalent camelid nanobody against hPCSK9) (VHH)
VHH: QVQLQESGGGSVQAGGSLRLSCTVSGYTYSSNCMGWFRQAPGKEHEGVASIYIGGGSTYYADSVKGRFTISQDNAKNTVYLQMNSLKPEDTAMYYCAVGCQGLVDFGYWDQGTQVTVSS

koff [1]: 0.00123 s⁻¹
Kd [2]: 0.689 nM
B2: Llama VHH-human IgG4 hinge linker-IgG4 Fc chimeric HcAb (VHH-B11-Fc) (Fc fusion)
chain: B1 VHH
